Target: T1, DEK (Homo sapiens, UniProt P35659 P35659:1-375)
T1 sequence: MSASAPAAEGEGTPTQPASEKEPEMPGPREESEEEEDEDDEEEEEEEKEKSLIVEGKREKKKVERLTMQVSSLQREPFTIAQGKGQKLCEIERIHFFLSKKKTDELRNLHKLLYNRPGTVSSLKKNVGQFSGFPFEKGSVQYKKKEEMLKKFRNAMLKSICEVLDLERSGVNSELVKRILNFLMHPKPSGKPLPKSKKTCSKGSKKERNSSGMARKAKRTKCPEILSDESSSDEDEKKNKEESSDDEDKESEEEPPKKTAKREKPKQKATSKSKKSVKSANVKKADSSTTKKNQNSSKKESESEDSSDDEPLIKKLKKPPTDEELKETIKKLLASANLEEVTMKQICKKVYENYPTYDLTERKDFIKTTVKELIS
Test: Southwestern blot on denatured DEK with salmon sperm DNA competitor; 300 mM NaCl wash; not quantitated; clones preselected by dot blot filter binding
Conditions: tags: His-tag (pBlueBacHis2A baculovirus, HighFive cells, Ni-NTA purified); label: 5'-32P
Experimental: After determining the sequences of individual aptamer clones, the corresponding DNA oligonucleotides with and without 5′ and 3′ priming sequences were ordered from IDT (Coralville, Iowa), and radiolabeled with ³²P according to the NEB T4 Kinase kit protocol as above. Binding was then tested using a southwestern blot of purified DEK protein. A conventional western blot was performed using PVDF Immobillon P (EMDMillipore, Darmstadt, Germany). After the transfer, the membrane was soaked in PreHyb buffer [(10 mM Hepes (pH 7.9), 100 ug/mL salmon sperm DNA (Sigma-Aldrich, St. Louis, Mo.), 5% bovine serum albumin (Sigma-Aldrich, St. Louis, Mo.)] for 30 min on the shaker at room temperature to block the membrane. The PreHyb buffer was then removed and 5 mL of Hyb Buffer [(10 mM Hepes (pH 7.9), 50 mM NaCl, 1 mM EDTA, 1 mM DTT, 0.25% BSA, 2 ug/ul salmon sperm DNA, 50 million CPM aptamer)] was added and incubated on the shaker at room temperature for one hour. The Hyb Buffer was removed and the membrane was washed 3× on the shaker at room temperature for 20 min with wash buffer [(10 mM Hepes (pH 7.9), 300 mM NaCl, 1 mM EDTA, 1 mM DTT, 0.25% BSA)]. The membranes were dried and exposed on a Typhoon Phosphor imager (GE Healthcare, Pittsburgh, Pa.) cassette overnight to visualize the radiolabeled DNA bound to the bands corresponding to DEK protein. […] No quantitation was determined.

B1: DEK aptamer 85 (ssDNA)
DNA: ATAGGGAGTCGACCGACCAGAATACCGTGGCATCTGGTTGTAGCATCACGTCTTATGCGGCCGTATGTGCGTCTACATCTAGACT
binding result: binds

B2: DEK aptamer 64 (ssDNA)
DNA: ATAGGGAGTCGACCGACCAGAAGGGGTTAAATATTCCCACATTGCCTGCGCCAGTACAAATAGTATGTGCGTCTACATCTAGACT
binding result: binds

Source: patent US20180187196, “INHIBITORS OF DEK PROTEIN AND RELATED METHODS” (THE REGENTS OF THE UNIVERSITY OF MICHIGAN, published 2018)
